In patent publication US20060177880A1 (ROCHE DIAGNOSTICS OPERATIONS, published 2006):

Target: T1, ILEU (Leukocyte elastase inhibitor) (human, UniProt P30740 1-379)
T1 sequence: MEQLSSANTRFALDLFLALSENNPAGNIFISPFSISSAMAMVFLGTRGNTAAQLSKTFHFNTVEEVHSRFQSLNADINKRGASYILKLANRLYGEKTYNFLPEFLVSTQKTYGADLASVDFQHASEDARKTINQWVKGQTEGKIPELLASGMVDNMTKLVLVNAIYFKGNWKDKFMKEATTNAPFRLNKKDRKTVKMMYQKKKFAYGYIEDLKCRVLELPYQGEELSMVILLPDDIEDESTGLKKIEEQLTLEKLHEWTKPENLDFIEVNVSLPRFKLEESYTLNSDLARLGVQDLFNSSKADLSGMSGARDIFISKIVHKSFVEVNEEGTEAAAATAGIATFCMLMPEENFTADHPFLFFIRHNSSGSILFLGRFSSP
Assay: 2D gel (IEF and SDS-PAGE) of tumor tissue lysate, spot identified by MALDI-TOF mass spectrometry
Description: For IEF, 3 ml of the suspension are mixed with 12 ml sample buffer (7 M urea, 2 M thiourea, 2% CHAPS, 0.4% IPG buffer pH 6-9, 0.5% DTT) and incubated for 1 h. The samples are concentrated in an Amicon® Ultra-15 device (Millipore GmbH, Schwalbach, Germany) and the protein concentration is determined using the Bio-Rad® protein assay (Cat. No. 500-0006; Bio-Rad Laboratories GmbH, Munchen, Germany) following the instructions of the supplier's manual. To a volume corresponding to 1.5 mg of protein sample buffer is added to a final volume of 350 μl. This solution is used to rehydrate IPG strips pH 6-9 (Amersham Biosciences, Freiburg, Germany) overnight. The IEF is performed using the following gradient protocol: 1.) 1 minute to 500 V; 2.) 2 h to 3,500 V; 3.) 22 h at constant 3,500 V giving rise to 82 kVh. After IEF, strips are stored at −80° C. or directly used for SDS-PAGE. […]
Each patient is analyzed separately by image analysis with the ProteomeWeaver® software (Definiens AG, Germany, München). […] For each patient, 4 gels from the tumor sample are compared with 4 gels each from adjacent normal and stripped mucosa tissue and analyzed for distinctive spots corresponding to differentially expressed proteins. […]

B1: PRN3 (proteinase 3) (enzyme)
chain: IVGGHEAQPHSRPYMASLQMRGNPGSHFCGGTLIHPSFVLTAAHCLRDIPQRLVNVVLGAHNVRTQEPTQQHFSVAQVFLNNYDAENKLNDVLLIQLSSPANLSASVATVQLPQQDQPVPHGTQCLAMGWGRVGAHDPPAQVLQELNVTVVTFFCRPHNICTFVPRRKAGICFGDSGGPLICDGIIQGIDSFVIWGCATRLFPDFFTRVALYVDWIRSTLR
notes: Endogenous protein in lysates of human colorectal tumor tissue, with an apparent MW of ~28 kDa on the blot; also called uncomplexed PRN3
- binding result: binds
